Results published in patent publication US20200179510A1 (YALE UNIVERSITY, published 2020).

Biological target: T1, Recombinant mouse DKK1 protein (R&D) (mouse, UniProt O54908 32-272, limits assumed)
T1 construct: Bought recombinant protein, coated on the ELISA plate at 20 ng/ml
T1 sequence (looked up): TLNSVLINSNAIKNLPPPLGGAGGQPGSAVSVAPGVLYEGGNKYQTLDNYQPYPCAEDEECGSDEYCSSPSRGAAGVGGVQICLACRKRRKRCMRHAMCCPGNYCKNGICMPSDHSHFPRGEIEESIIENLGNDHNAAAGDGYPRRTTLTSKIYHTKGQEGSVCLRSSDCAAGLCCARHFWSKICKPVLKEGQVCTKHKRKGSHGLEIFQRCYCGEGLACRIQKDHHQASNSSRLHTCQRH
Assay: ELISA, recombinant mouse DKK1 coated at 20 ng/ml
Description: Recombinant mouse DKK2 or DKK1 protein (20 ng/ml, R&D) in a blocking buffer (1% BSA in PBS) was incubated in a 384-well microtiter plate for overnight at 4° C. The plate was washed with PBS twice and incubated with the blocking buffer for one hour at room temperature. The plate was then incubated with the anti-DKK2 5F8 antibody in the blocking buffer for 1 hour at room temperature. After repeatedly washing, the plate was incubated with an HRP-conjugated secondary antibody for 1 hour at room temperature. A chemiluminance substrate (Thermo Fisher 37070) was added to the plate, and the plate was read by an EnVision plate reader.

B1: Mouse monoclonal antibody to DKK2 (5F8) (antibody, V domains shown)
VH: GAELVRPGASVKLSCKASGYSFTNYWMNWVKQRPGQGLEWIGMIHPSDSETRLNQKFKDKATLTVDKSSSTAYMQLSSPTSEDSAVYYCAREGRLGLRSYAMDYWGQGTSVTVSS
VL: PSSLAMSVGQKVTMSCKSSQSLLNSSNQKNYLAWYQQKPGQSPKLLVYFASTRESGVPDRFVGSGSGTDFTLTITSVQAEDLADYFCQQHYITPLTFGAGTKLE
notes: Mouse hybridoma antibody; IgG3 served as its isotype control; also called anti-DKK2 5F8 antibody; anti-DKK2 antibody 5F8
B1: no binding.
